According to the nanobody polyreactivity screen of Harvey et al. (2022):

Test: yeast display, Sf9 membrane polyspecificity reagent, FACS + sequencing; frameworks hold sequencing errors
In short: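 Nanobodies from a synthetic yeast display library (Saccharomyces cerevisiae BJ5465), induced 36–48 hours with galactose, were stained 1 hour at 4 °C with 10% biotinylated, detergent-solubilized Sf9 membrane reagent, enriched on streptavidin microbeads, then FACS-sorted. Anti-HA (expression) and streptavidin (reagent binding) fluorescence set low and high (top ~1%) gates. Polyreactivity labels come from the gate of origin. Genes were colony-PCR amplified, MiSeq 2 × 250 sequenced and filtered by CDR length.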

Row | Sequence | polyreactivity (PSR sort gate)
1 | QVQLVESGGGLVQAGGSLRLSCAASGSIIVLNAMGWYRQAPGKERELVAAITSGGSTYYADSVKGRFTISRDNAKNTVYLQMNSLKPEDTAVYYCNALDLSPSYKYDYWGQGTQVTVSS | low polyreactivity
2 | QVQLVESGGGLVQAGGSLRLSCAASGSIIVWNAMGWYRQAPGKERELVAAITWSGVTTYYADSVKGRFTISRDNAKNTVYLQMNSLKPEDTAVYYCAAGRTRRKFDYWGQGTQVTVSS | low polyreactivity
3 | QVQLVESGGGLVQAGGSLRLSCAASGSIIVYNTMGWYRQAPGKERGLVAAITVRDDSTYYADSVKGRFTISRDNAKNTVYLQMNSLKPEDTAVYYCNVRKTWYGYSVTGRYDYWGQGTEVTVSS | low polyreactivity
4 | QVQLVESGGGLVQAGGSLRLSCAASGSIIYRYVMGWYRQAPGKERESVAAISWRGTNTYADSVKGRFTISRDNAKNTVYLQMNSLKPEDTAVYYCAARKWDRYRDFEYWGQGTQVTVSS | high polyreactivity
5 | QVQLVESGGGLVQAGGSLRLSCAASGSIIYTNAMGRYRQAPGKEREVVAAITGTTTTNYADSVKGRFTISRDNAKNTVYVQMNSLKPEDTAVYYCNADYDRSRVYYSVELYDYWGQGTQVTVSS | low polyreactivity
6 | QVQLVESGGGLVQAGGSLRLSCAASGSIIYWYAMGWYRQAPGKERELVADISRGGITYYADSVKGRFTISRDNAKNTVYLQMNSLKPEDTAVYYCSKTHYGVQRLDSWGQGTQVTVSS | low polyreactivity
7 | QVQLVESGGGLVQAGGSLRLSCAASGSIIYYNAMGWYRQAPAKERELVAAITGSGGSTYYADSVKGRFTISRDNAINTVYLQMNSLKPEDTAVYDCAADYSLYGWWFRNDYWGQGTQVTVSS | low polyreactivity
8 | QVQLVESGGGLVQAGGSLRLSCAASGSIIYYYAMGWYRQAPGKERELVAAISASGGRTYYADSVKGRFTISRDNAKNTVYLQMNSLKPEDTAVYYCAKRGTLGSYYYWGQGTQVTVSS | high polyreactivity
9 | QVQLVESGGGLVQAGGSLRLSCAASGSIKDNVMGWYRQAPGKERELVAAITRSAGRTYYADSVMGRFTISRDNEKNTVYLQMNSLKPEDTAVYYCASQAERYGYEYWGQGTQVTVSS | low polyreactivity
10 | QVQLVESGGGLVQAGGSLRLSCAASGSILAANAMGWYRQAPGKERELVAAIDWTGGDTYYADSVKGRFTISRDNAKNTVYLQMNSLKPEDTAVYYCAAEFVWPSIAYDVEYDYWGQGTQVTVSS | low polyreactivity
11 | QVQLVESGGGLVQAGGSLRLSCAASGSILAGNVMGWYRQAPGKERELVAAITGSGGITYYADSVKGRFTISRDNAKNTVYLQMNSLKPEDTAVYYCNAVPDTRSGELDYWGQGTQVTVSS | low polyreactivity
12 | QVQLVESGGGLVQAGGSLRLSCAASGSILAVNAMGWYRQAPGKERELVAAISSRGGSTSYADSVKGRFTISRDNAKNTVYLQMNSLKPEDTAVYYCAVRAVRRLRTSVPVRFYYWGQGTQVTVSS | high polyreactivity
13 | QVQLVESGGGLVQAGGSLRLSCAASGSILDSNAMGWYRPAPGKERELVAAITSGGSTYYADSVKGRFTISRDNAKNTVYLQMNSLKPEDTAVYYCAAAYLGYGAVQPSYEGGYWGQGTQVTVSS | low polyreactivity
14 | QVQLVESGGGLVQAGGSLRLSCAASGSILFYAMGWYRQAHGKERELVAAITWRGGSTFYADSVKGRFTISRDNAKNTVYLQMNSLKPDDTAVYYCAASYYRYGHRSRGRYYYWGQGTQVTVSS | high polyreactivity
15 | QVQLVESGGGLVQAGGSLRLSCAASGSILGDYAMGWDRQAPGKEREFVAAIDGSDGSTYYADSVKGRFTISRDNAKNTVYLQMNILKPEDTEVYYCAATDYDTYRSSWYVYWGQCTQVTVSS | low polyreactivity
16 | QVQLVESGGGLVQAGGSLRLSCAASGSILGINVMGWYRQAPGKERELVAAISWRVGRTYYADSVKGRFTISRDNAKKTDDLQMNSLKPEDTAVYYCNVDRWGNIPVGDYDYWGQGTEVTVSS | high polyreactivity
17 | QVQLVESGGGLVQAGGSLRLSCAASGSILGLYAMGWYRQAPGKERELVAAISSGGSTYYADSVKGRFTISRDNAKNTVYLQMNSLKPEDSAVYYCAADLSWSRVVFGDYDYWGQGTQVTVSS | low polyreactivity
18 | QVQLVESGGGLVQAGGSLRLSCAASGSILGRYAMGWYRQAPGKERELVAAITNRGGSTYYADSVNGRFTISRDNAKNTVYLQMNSLKPEDTAVYYCAAPYSAKELYYRMDYWGQGTQVTVSS | high polyreactivity
19 | QVQLVESGGGLVQAGGSLRLSCAASGSILGTYAMGWTIQAPGKERELVAAISSSGRTSYADSEKGRFTISRDNAKNTVYLQMNSLKPEDTAVYYCNASNYIVLINDPDAAPWLYDYWGQVTQVTVSS | low polyreactivity
20 | QVQLVESGGGLVQAGGSLRLSCAASGSILGTYAMGWYRQAPGKERELVAAITLSTDGTYYADSVKGRFTISRDNAKNTVYLQMNSLKPEDTAVDYCAAPWNWRWVTQWGYYVRADYFWGQGTQVTVSS | low polyreactivity

Row | Sequence | polyreactivity (PSR sort gate)
21 | QVQLVESGGGLVQAGGSLRLSCAASGSILGYYAMGWYRQAPGKERELVAAISSGGSTNYADSVKGRFTISRDNAKNTVYLQMNSLKPEDTAVYYCAADRTYHGGFDYWGQGTQVTVSS | low polyreactivity
22 | QVQLVESGGGLVQAGGSLRLSCAASGSILGYYAMGWYRQAPGKERELVADIDNGTSTYYADSVKGRFTISRDNANNTVYLQMISLKPEDTAVYYCADEYYSRYFQSYYWGQGTQVTVSS | low polyreactivity
23 | QVQLVESGGGLVQAGGSLRLSCAASGSILGYYAMRWYRQAPGKDRELVAAISSGGSTNYADSVKGRFTISRDNAKNTVYLQMNSLKPEDTAVYYCAADRTYHGGFDYWGLGTQVTVSS | low polyreactivity
24 | QVQLVESGGGLVQAGGSLRLSCAASGSILHAYALGWYRQAPGTERELVAAINWSGGSTYYADSVKGRFTISRDNAKNTVYLQMNSLKPEDTAVYYCAKVWRYGRYEYGYWGQGTQVTVSS | high polyreactivity
25 | QVQLVESGGGLVQAGGSLRLSCAASGSILIYNAMGWYRQAPGKERELVAGISRRGASTYYADSVKGRFTISRDNAKNTVYLQMNSLKPEDTAVYYCAALGKYIVAWAGDYWGQGTQVTVSS | low polyreactivity
26 | QVQLVESGGGLVQAGGSLRLSCAASGSILKFNAMGWYRQAPGKERELVAAITRGTNTYYADSVKGRFTISRDNAKNTVYLQMNSLKPEDSAVYYCAARQPYNAFGYFYWGQGTQVTVSS | low polyreactivity
27 | QVQLVESGGGLVQAGGSLRLSCAASGSILKYYAMGWYRQAPGKERELLAAISWSGGRTYYADSVKGRFTISRDNAKNTVYLQMNSLKPEDTAVYYCAAENYGSGSWHGPEYDYWGQGTQVTVSS | low polyreactivity
28 | QVQLVESGGGLVQAGGSLRLSCAASGSILKYYAMGWYRQAPGKERELVAAISRSGGSTYYADSVKGRFTISRDNAKITVYLQMTSLKPEDTAVYYCAAYYNLPYHGSDYWGQGTQVTVSS | high polyreactivity
29 | QVQLVESGGGLVQAGGSLRLSCAASGSILLGYAMGWYRQAPGKERELVAAITFRGGSTYYADSVKGRFTISRDNAKNTVYLQMNSLKPEATAVYYCAKVWWLYSSTYLRYYWGQGTQVTVSS | low polyreactivity
30 | QVQLVESGGGLVQAGGSLRLSCAASGSILLRYAMGWYRQAPGKERELVAAIRTIGASTYYADSVKGRFTISRDNAKNTVYLQMNSLKPEDTAVYYCNAYLAEVLPLGKGRLYDYWGQGTQVTVSS | low polyreactivity
31 | QVQLVESGGGLVQAGGSLRLSCAASGSILPRYGMGWYRQAPGKEREFVAAISWRGGRTYYADSVKGRFTISRDNAKNTVYLQMNSLKPEDTAVYYCAARANIYTRLDYWGQGTQVTVSS | high polyreactivity
32 | QVQLVESGGGLVQAGGSLRLSCAASGSILRPNAMGWYRQAPGKERELVAAITTTGGSTYYADSVKGRFTISRDNAKNTVYLLMNRLKPEDTAVYYCAAEYVYLYYLYLYYYWGQGTQVTVSS | high polyreactivity
33 | QVQLVESGGGLVQAGGSLRLSCAASGSILRQYAMGWYRPAPGKERELVAAINSGGSTNYADSVKGRITISRDNAKNTVYLQMNSLKPEDTAVYFCAADWSLYSHEFDYWGQGTQVTVSS | high polyreactivity
34 | QVQLVESGGGLVQAGGSLRLSCAASGSILRRYAMGWYRQAPGKERELVAAINYSGGNTYYADSVKGRFTISRDNAKNTVYLQMNSLKPEDTAVYFCAAYYGPYSARYYGGYEYWGQGTQVTVSS | high polyreactivity
35 | QVQLVESGGGLVQAGGSLRLSCAASGSILSGYAMGWYRQAPGKERELVAAISWSGGSTYYADSVKGRFTISRDNAKNTVYLQMNSLKPEDTAVYYCAAASVPWGGYYWGQGTQVTVSS | low polyreactivity
36 | QVQLVESGGGLVQAGGSLRLSCAASGSILSHYAMGWYRQAPGKERELVAAITTRGGSTYYADSVKGRFTISRDNAKNTVFLQMNSLKPEDTAVYYCAARGGVDSAYYGYWGQGTQVTVSS | high polyreactivity
37 | QVQLVESGGGLVQAGGSLRLSCAASGSILSLYTMGWYRQAPGKERELVAAITRSGGSTYYADSVKGRFTISRDNAKNTVYLQMNSLKPEDTAVYYCAATREVTSYSSAPRVYYWGQGTQVTVSS | high polyreactivity
38 | QVQLVESGGGLVQAGGSLRLSCAASGSILSSYAMGWYRQAPGKERELVAAISKSGTRTYYADSVKGRFTISRDNAKNTVYLQMNSLKPEDTAVYYCAVVYYGSIFVLEYDYWGQGTQVTVSS | high polyreactivity
39 | QVQLVESGGGLVQAGGSLRLSCAASGSILSYNAMGWSRQAPGKERELVATITGTGGSTRYADSVKGRFTISRDNAKNTVYLQMNSLKPEDTAVYYCATAAWWYYRIYHEFGYWGQGTQVTVSS | high polyreactivity
40 | QVQLVESGGGLVQAGGSLRLSCAASGSILSYYAMGWYRLAPGKEREFVAAISSGGGTYYADSVKGRFTISRDNAKNTVYLQMNSLKPEDTAVYYCNAVHASSIQFEYWGQGTKVTVSS | low polyreactivity
